Experiment [1] concerns the target T1, KDR-alkaline phosphatase (AP) soluble fusion protein (human, UniProt P35968 20-764).
T1 construct: Expressed in NIH 3T3 cells as in Lu et al. 2000; also called KDR-AP; full length KDR-AP; not shown: alkaline phosphatase (AP) fusion partner
The experiment is described as follows: competitive blocking ELISA: Fab pre-incubated with KDR-AP, then binding of KDR-AP to immobilised VEGF165, A405. Here is the method: FIG. 2 depicts binding to KDR, blocking of KDR/VEGF interaction and blocking of Flk-1/VEGF interaction by human anti-KDR Fab fragments. FIG. 2A: Dose-dependent binding of human anti-KDR Fab to immobilized KDR. FIG. 2B: Inhibition of KDR binding to immobilized VEGF by anti-KDR Fab. FIG. 2C: Inhibition of Flk-1 binding to immobilized VEGF by anti-KDR Fab. Various amounts of Fab proteins were incubated with a fixed amount of KDR-AP (2B) or Flk-1-AP (2C) in solution at RT for 1 h.
(§1) In a direct binding assay, various amounts of soluble Fab proteins were added to KDR-coated 96-well Maxi-sorp microtiter plates and incubated at RT for 1 h, after which the plates were washed 3 times with PBST. The plates were then incubated at RT for 1 h with 100 μl of a rabbit anti-human Fab antibody-HRP conjugate (Jackson ImunoResearch Laboratory Inc., West Grove, Pa.). The plates were washed and developed following the procedure described above for the phage ELISA. In a competitive KDR/VEGF blocking assay, various amounts of Fab proteins were mixed with a fixed amount of KDR-AP (100 ng) and incubated at RT for 1 h. The mixtures were then transferred to 96-well microtiter plates precoated with VEGF₁₆₅ (200 ng/well) and incubated at RT for an additional 2 h, after which the plates were washed 5 times and the substrate for AP (p-nitrophenyl phosphate, Sigma) was added. Absorbance at 405 nm was measured to quantify the bound KDR-AP molecules (8).
(§2) Clone D2C6 and D2H2 are more efficient binders, followed by clone D1H4 and D1F7. All four Fabs also block KDR binding to immobilized VEGF (FIG. 2B). […] Only clone D1F7 blocks VEGF from binding to Flk-1 (FIG. 2C), with an IC₅₀ of approximately 15 nM.
(In general: An ELISA detects its analyte on a solid surface through an enzyme-linked reagent.)

The target of experiment [2] is T2, Flk-1-AP soluble fusion protein (murine, UniProt P35918 20-762).
T2 construct: Soluble fusion protein from NIH 3T3 cells; also called fetal liver kinase 1; not shown: alkaline phosphatase (AP) fusion partner
Put plainly: competitive blocking ELISA: Fab pre-incubated with Flk-1-AP, then binding of Flk-1-AP to immobilised VEGF165, A405.

The target of experiment [3] is cell-surface KDR (human, UniProt P35968 20-1356). Put plainly: cell-based or functional assay.
Experiment [4] addresses T1, KDR-alkaline phosphatase (AP) soluble …. Put plainly: direct binding ELISA: Fab on KDR-coated plate, detected with anti-human Fab-HRP, A450. As to the method:
as §1, §2

Experiment [5] shares this target. Put plainly: BIAcore SPR, KDR immobilized. As to the method:
The binding kinetics of soluble Fab proteins to KDR were measured by surface plasmon resonance using a BIAcore biosensor (Pharmacia Biosensor). KDR-AP fusion protein was immobilized onto a sensor chip and soluble Fab proteins were injected at concentrations ranging from 1.5 nM to 100 nM. Sensorgrams were obtained at each concentration and were evaluated using a program, BIA Evaluation 2.0, to determine the rate constants kon and koff. Kd was calculated from the ratio of rate constants koff/kon.
Antibody affinity or avidity was determined by BIAcore analysis, as above. The binding kinetics, i.e., the association rate constant (kon) and the dissociation rate constant (koff), of the anti-KDR antibodies were measured and the dissociation constant, Kd, was calculated (Table 4).
For orientation: SPR reads the build-up and loss of mass on a sensor chip optically.

Experiment [6] shares this target. The experiment is described as follows: direct binding ELISA: antibody on KDR-coated plate, detected with anti-human IgG Fc-HRP, A450. As to the method:
(§3) FIG. 6 depicts binding to KDR and blocking of KDR/VEGF interaction by human anti-KDR antibodies. FIG. 6A: Dose-dependent binding of anti-KDR to immobilized KDR. Various amounts of antibodies were incubated at RT for 1 h in 96-well plates coated with KDR FIG. 6B: Inhibition of binding of KDR to immobilized VEGF by human anti-KDR antibodies. Various amounts of the antibodies were incubated with a fixed amount of KDR-AP in solution at RT for 1 hr.
Anti-KDR antibodies were assessed for KDR binding and blocking of VEGF binding. In the direct binding assay, various amounts of antibodies were added to KDR-coated 96-well Maxi-sorp microtiter plates (Nunc, Roskilde, Denmark) and incubated at room temperature (RT) for 1 h, after which the plates were washed 3 times with PBS containing 0.1% Tween-20. The plates were then incubated at RT for 1 h with 100 μl of a rabbit anti-human IgG Fc-HRP conjugate (Jackson ImmunoResearch Laboratory Inc., West Grove, Pa.). The plates were washed and developed as above.

For experiment [7] the target is unchanged. The experiment is described as follows: competitive blocking ELISA: antibody pre-incubated with KDR-AP, then binding of KDR-AP to immobilised VEGF165, A405. Here is the method:
as §3
The efficacy of the anti-KDR antibodies for blocking KDR from binding to VEGF was measured with a competition assay. Various amounts of antibodies were mixed with a fixed amount of KDR-AP (100 ng) and incubated at RT for 1 h. The mixtures were then transferred to 96-well microtiter plates precoated with VEGF₁₆₅ (200 ng/well) and incubated at RT for an additional 2 h, after which the plates were washed 5 times and the substrate for AP (p-nitrophenyl phosphate, Sigma) was added, followed by reading the absorbance at 405 nm to quantify the bound KDR-AP molecules. […] The IC₅₀ is approximately 0.8 to 1.0 nM for all three antibodies.

Experiment [8] shares this target. Put plainly: BIAcore SPR, KDR immobilized. The source holds these as a separate data set.

Data on seven molecules can be found in US20050234225A1 (Eli Lilly, published 2005).

T1 sequence (P35968 20-764): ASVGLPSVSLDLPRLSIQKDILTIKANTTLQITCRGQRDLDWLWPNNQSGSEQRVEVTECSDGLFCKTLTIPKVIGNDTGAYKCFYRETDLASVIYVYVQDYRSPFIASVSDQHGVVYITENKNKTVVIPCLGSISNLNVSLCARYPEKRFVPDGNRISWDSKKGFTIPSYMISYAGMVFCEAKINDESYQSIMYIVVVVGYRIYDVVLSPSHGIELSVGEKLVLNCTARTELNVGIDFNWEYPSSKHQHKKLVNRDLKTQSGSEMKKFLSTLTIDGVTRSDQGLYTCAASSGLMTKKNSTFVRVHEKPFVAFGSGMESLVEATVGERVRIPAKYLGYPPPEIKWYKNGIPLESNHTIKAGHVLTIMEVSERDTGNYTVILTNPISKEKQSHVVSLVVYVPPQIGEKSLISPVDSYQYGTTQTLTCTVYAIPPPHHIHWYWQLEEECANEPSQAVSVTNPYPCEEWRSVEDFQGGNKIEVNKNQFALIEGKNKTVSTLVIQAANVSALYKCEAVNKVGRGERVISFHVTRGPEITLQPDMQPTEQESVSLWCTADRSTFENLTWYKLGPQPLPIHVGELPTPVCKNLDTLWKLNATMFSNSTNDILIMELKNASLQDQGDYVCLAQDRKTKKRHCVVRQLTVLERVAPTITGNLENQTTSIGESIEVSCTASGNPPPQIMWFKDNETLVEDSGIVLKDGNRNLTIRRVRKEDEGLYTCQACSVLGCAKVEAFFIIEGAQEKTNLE
cell-surface KDR, sequence (P35968 20-1356): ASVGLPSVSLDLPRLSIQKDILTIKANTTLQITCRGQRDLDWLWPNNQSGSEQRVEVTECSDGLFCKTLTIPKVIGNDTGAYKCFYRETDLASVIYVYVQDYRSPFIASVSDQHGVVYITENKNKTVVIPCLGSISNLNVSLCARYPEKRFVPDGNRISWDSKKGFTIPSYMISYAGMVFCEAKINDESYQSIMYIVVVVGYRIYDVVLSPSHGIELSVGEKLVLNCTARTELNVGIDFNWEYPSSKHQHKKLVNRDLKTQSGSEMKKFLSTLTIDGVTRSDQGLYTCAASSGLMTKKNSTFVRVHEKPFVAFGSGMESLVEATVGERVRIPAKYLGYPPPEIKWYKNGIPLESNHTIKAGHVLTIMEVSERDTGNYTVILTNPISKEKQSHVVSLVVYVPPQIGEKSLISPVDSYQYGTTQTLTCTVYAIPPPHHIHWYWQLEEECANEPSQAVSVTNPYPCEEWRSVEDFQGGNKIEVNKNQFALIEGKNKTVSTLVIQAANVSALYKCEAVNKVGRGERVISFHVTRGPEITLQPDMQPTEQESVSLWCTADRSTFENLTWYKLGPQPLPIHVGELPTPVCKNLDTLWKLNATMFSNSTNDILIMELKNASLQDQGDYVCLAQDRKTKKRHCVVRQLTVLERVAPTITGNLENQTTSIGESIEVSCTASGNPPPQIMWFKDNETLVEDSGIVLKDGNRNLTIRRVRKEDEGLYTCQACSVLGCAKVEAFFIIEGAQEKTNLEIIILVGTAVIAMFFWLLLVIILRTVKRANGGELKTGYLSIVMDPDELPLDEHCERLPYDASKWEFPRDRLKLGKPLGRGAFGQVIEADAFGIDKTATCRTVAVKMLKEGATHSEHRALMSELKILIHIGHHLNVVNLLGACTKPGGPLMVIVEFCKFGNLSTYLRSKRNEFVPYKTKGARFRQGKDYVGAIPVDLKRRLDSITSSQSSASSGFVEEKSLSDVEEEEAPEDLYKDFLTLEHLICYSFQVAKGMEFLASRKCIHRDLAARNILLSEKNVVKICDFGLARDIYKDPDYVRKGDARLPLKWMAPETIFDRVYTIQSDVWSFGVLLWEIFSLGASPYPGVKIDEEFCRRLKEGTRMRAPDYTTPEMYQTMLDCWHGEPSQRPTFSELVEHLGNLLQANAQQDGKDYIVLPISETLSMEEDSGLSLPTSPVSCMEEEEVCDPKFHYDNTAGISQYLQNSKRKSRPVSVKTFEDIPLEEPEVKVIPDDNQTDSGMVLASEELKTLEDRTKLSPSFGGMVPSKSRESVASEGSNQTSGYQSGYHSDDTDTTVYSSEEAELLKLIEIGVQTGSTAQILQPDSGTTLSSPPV
T2 sequence (P35918 20-762): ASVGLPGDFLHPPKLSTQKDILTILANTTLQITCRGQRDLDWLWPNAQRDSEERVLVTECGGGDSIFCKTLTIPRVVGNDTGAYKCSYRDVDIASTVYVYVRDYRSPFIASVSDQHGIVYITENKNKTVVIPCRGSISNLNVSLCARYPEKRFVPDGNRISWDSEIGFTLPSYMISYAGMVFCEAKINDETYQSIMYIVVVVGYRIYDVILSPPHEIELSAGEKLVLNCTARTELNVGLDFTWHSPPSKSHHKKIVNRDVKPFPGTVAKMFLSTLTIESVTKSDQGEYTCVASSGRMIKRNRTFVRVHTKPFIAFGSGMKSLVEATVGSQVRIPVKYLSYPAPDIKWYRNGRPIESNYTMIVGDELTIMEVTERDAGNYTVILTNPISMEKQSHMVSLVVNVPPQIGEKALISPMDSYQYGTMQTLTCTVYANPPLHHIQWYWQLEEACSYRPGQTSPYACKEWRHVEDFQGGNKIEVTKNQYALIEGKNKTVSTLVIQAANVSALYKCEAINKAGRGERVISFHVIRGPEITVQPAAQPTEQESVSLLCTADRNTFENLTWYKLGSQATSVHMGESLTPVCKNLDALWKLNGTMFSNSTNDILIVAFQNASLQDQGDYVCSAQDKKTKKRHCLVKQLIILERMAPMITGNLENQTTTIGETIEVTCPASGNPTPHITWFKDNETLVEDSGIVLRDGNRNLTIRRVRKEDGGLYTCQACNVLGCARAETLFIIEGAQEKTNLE

B1: D2C6 Fab (Fab, V domains shown)
VH: EVQLVQSGGGLVKPGGSLRLSCAASGFTFSSYSMNWVRQAPGKGLEWVSSISSSSSYIYYADSVKGRFTISRDNAKNSLYLQMNSLRAEDTAVYYCARVTDAFDIWGQGTMVTVSS
VL: EIVMTQSPATLSLSPGERATLSCRASQSVSSYLAWYQQKPGQAPRLLIYDSSNRATGIPARFSGSGSGTDFTLTISSLEPEDFATYYCLQHNTFPPTFGQGTKVEIK
notes: Soluble human Fab from E. coli HB2151; also called Hu-2C6 Fab; Hu-2C6
As for B1, in experiment [1], the “IC50 (read off the curve)” value is ~3 nM. Besides, in experiment [2], the binding result is on record as “no binding (tested: about 60 nM)”. The “EC50 of inhibition of VEGF-stimulated [3H]-TdR incorporation in HUVEC” value (from here on “EC50 of inhibition of VEGF-stimulated”) in experiment [3] is ~0.5 nM. The EC50 (read off the curve) (usually the midpoint of the concentration-response curve) in experiment [4] is ~0.7 nM. Further, in experiment [5], the affinity, expressed as Kd, was 3.6 nM; the koff (as a rule, a measure of how fast the partners let go of each other) came out at 0.00055 s⁻¹; the kon (commonly the rate constant with which the complex forms) worked out at 171000 M⁻¹ s⁻¹.

B2: D1H4 Fab (Fab, V domains shown)
VH: EVQLVQSGGGLVKPGGSLRLSCAASGFTFSSYSMNWVRQAPGKGLEWVSSISSSSSYIYYADSVKGRFTISRDNAKNSLYLQMNSLRAEDTAVYYCARVTDAFDIWGQGTMVTVSS
VL: QSALTQPASLSGSPGQSITISCAGTTTDLTYYDLVSWYQQHPGQAPKLVIYDGNKRPSGVSNRFSGSKSGNTASLTISGLQAEDEADYYCNSYVSSRFYVFGTGTKVTVL
notes: Soluble human Fab from E. coli HB2151; also called DlH4; Hu-1H4 Fab
Consider B2, for which the “IC50 (read off the curve)” value in experiment [1] was ~2 nM. The binding result in experiment [2] was “no binding (tested: about 60 nM)”. The “EC50 of inhibition of VEGF-stimulated” value in experiment [3] is ~0.5 nM. Besides, in experiment [4], the “EC50 (read off the curve)” value was ~1 nM.

B3: IMC-1121 IgG (antibody, V domains shown)
VH: EVQLVQSGGGLVKPGGSLRLSCAASGFTFSSYSMNWVRQAPGKGLEWVSSISSSSSYIYYADSVKGRFTISRDNAKNSLYLQMNSLRAEDTAVYYCARVTDAFDIWGQGTMVTVSS
VL: DIQMTQSPSSVSASIGDRVTITCRASQGIDNWLGWYQQKPGKAPKLLIYDASNLDTGVPSRFSGSGSGTYFTLTISSLQAEDFAVYFCQQAKAFPPTFGGGTKVDIK
For the molecule B3, the “EC50 (read off the curve)” value in experiment [6] was ~0.3 nM. Further, in experiment [7], the “IC50 (read off the curve)” value was ~0.8 nM. The “fold increase in overall binding avidity against Hu-1121 Fab” value in experiment [8] is ~2 fold. Also, in experiment [5], the Kd (as a rule, the equilibrium constant for the complex coming apart) stood at 0.05 nM; the dissociation rate constant (koff) was determined as 2.5e-05 s⁻¹; the kon stood at 479000 M⁻¹ s⁻¹.

B4: D2H2 Fab (Fab, V domains shown)
VH: EVQLVQSGGGLVKPGGSLRLSCAASGFTFSSYSMNWVRQAPGKGLEWVSSISSSSSYIYYADSVKGRFTISRDNAKDSLYLQMNSLRAEDTAVYYCARVTDAFDIWGQGTMVTVSS
VL: DIQLTQSPSSVSASVGDRVTITCRASQGISSRLAWYQQKPGKAPKLLIYAASSLQTGVPSRFSGSGSGTDFTLTISSLQPEDFATYYCQQANRFPPTFGPGTKVDIK
notes: Soluble human Fab from E. coli HB2151; also called Hu-2H2 Fab
Take B4: in experiment [1], the “IC50 (read off the curve)” value was ~2 nM. Also, the binding result in experiment [2] is recorded as “no binding (tested: about 60 nM)”. In addition, in experiment [3], the “EC50 of inhibition of VEGF-stimulated” value was ~0.8 nM. For the same molecule, in experiment [4], the “EC50 (read off the curve)” value was ~0.7 nM.

B5: IMC-2C6 IgG (antibody, V domains shown)
VH: EVQLVQSGGGLVKPGGSLRLSCAASGFTFSSYSMNWVRQAPGKGLEWVSSISSSSSYIYYADSVKGRFTISRDNAKNSLYLQMNSLRAEDTAVYYCARVTDAFDIWGQGTMVTVSS
VL: EIVMTQSPATLSLSPGERATLSCRASQSVSSYLAWYQQKPGQAPRLLIYDSSNRATGIPARFSGSGSGTDFTLTISSLEPEDFATYYCLQHNTFPPTFGQGTKVEIK
For B5, the “EC50 (read off the curve)” value in experiment [6] was ~0.4 nM. Further, the “IC50 (read off the curve)” value in experiment [7] is ~0.7 nM. In addition, the “fold change of Kd against the monovalent Hu-2C6 Fab” value in experiment [8] was ~18 fold. In experiment [5], the Kd was 0.2 nM, the koff was found to be 4.3e-05 s⁻¹ and the kon stood at 212000 M⁻¹ s⁻¹.

B6: Hu-1121 Fab (Fab, V domains shown)
VH: EVQLVQSGGGLVKPGGSLRLSCAASGFTFSSYSMNWVRQAPGKGLEWVSSISSSSSYIYYADSVKGRFTISRDNAKNSLYLQMNSLRAEDTAVYYCARVTDAFDIWGQGTMVTVSS
VL: DIQMTQSPSSVSASIGDRVTITCRASQGIDNWLGWYQQKPGKAPKLLIYDASNLDTGVPSRFSGSGSGTYFTLTISSLQAEDFAVYFCQQAKAFPPTFGGGTKVDIK
notes: see also CLM-00007) with new light chains
Take B6: the “fold improvement in Kd against Hu-2C6” value in experiment [8] stood at 33 fold. Further, in experiment [5], the Kd was 0.11 nM, the koff was found to be 3.1e-05 s⁻¹ and the kon is 296000 M⁻¹ s⁻¹.

B7: D1F7 Fab (Fab, V domains shown)
VH: EVQLVQSGAEVKKPGASVKVSCKASGGTFSSYAISWVRQAPGQGLEWMGGIIPIFGTANYAQKFQGRVTFTADKSTSTAYMELRSLRSDDTAVYYCARGYDYYDSSGVASPFDYWGQGTLVTVSS
VL: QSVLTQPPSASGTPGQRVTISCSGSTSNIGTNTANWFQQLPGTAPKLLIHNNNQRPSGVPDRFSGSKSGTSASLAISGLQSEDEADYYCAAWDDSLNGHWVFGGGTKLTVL
B7: the “EC50 of inhibition of VEGF-stimulated” value in experiment [3] was ~15 nM.
